From PMC5529513

Legend:
ephrin-A5 Fc [1] = molecular target: ephrin-A5 Fc (UniProt P52803); assay: SPR; details: Fc fusion
ephrin-A5 Fc [2] = molecular target: ephrin-A5 Fc (UniProt P52803); assay: ELISA; details: Fc fusion
ephrin-B3 Fc = ephrin-B3 Fc (UniProt Q15768); assay: ELISA; details: Fc fusion
[3] = molecular target: triple mutant of EphA4 Fc (N235Q, N340Q, N408Q) (human) (UniProt P54764); assay: AUC; sedimentation velocity, 10 mM potassium phosphate pH 7.6, 20 °C, 40,000 rpm, c(s) fit with SEDFIT; oligomeric state of the Fc fusion
ephrin-A5 Fc [4] = molecular target: ephrin-A5 Fc (UniProt P52803); assay: SPR; BIAcore T200; ephrin-A5 Fc amine-coupled on CM5 chip; EphA4 Fc proteins 500 to 50 nM in 10 mM HEPES pH 7.4, 150 mM NaCl, 3 mM EDTA, 0.05% Surfactant P20; 30 µl/min; bivalent analyte model and steady state affinity model
[5] = molecular target: EphA4 Fc (wild type): human EphA4 ectodomain fused to IgG4 Fc (human) (UniProt P54764); assay: AUC; sedimentation velocity, 10 mM potassium phosphate pH 7.6, 20 °C, 40,000 rpm, c(s) fit with SEDFIT; oligomeric state of the Fc fusion

UniProt Q15768, sequence (Q15768 28-226): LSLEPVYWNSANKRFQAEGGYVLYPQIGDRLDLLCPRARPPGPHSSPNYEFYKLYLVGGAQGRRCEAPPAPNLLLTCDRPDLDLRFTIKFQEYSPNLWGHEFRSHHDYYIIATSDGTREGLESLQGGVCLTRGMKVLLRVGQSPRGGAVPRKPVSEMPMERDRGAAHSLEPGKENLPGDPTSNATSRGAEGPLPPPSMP

Kd (ephrin-A5 Fc [1]) [nM]	Kd (ephrin-A5 Fc [2]) [nM]	Kd (ephrin-B3 Fc) [nM]	stoichiometry N [3]	ka1 (bivalent analyte model) (ephrin-A5 Fc [4]) [M⁻¹ s⁻¹]	ka2 (bivalent analyte model) (ephrin-A5 Fc [4]) [RU^-1s^-1]	kd1 (bivalent analyte model) (ephrin-A5 Fc [4]) [s⁻¹]	kd2 (bivalent analyte model) (ephrin-A5 Fc [4]) [s⁻¹]	stoichiometry N [5]	Substance
318	0.51	23.9	–	–	–	–	–	–	EphA4 Fc (wild type): human EphA4 ectodomain fused to IgG4 Fc (from UniProt P54764-1 20-547)
–	–	–	2	115000	5.4e-05	0.0184	2.66e-06	–	triple mutant of EphA4 Fc (N235Q, N340Q, N408Q) (from UniProt P54764-1 20-547) (Fc fusion)
–	–	–	–	56300	0.000112	0.0224	0.00106	2	EphA4 Fc (wild type): human EphA4 ectodomain fused to IgG4 Fc (from UniProt P54764-1 20-547) (Fc fusion)
